Target: human NRP1 protein (human, UniProt O14786 22-644)
Experiment: ELISA

human NRP1 protein, sequence (O14786 other isoform, or with tags, fused parts or gaps): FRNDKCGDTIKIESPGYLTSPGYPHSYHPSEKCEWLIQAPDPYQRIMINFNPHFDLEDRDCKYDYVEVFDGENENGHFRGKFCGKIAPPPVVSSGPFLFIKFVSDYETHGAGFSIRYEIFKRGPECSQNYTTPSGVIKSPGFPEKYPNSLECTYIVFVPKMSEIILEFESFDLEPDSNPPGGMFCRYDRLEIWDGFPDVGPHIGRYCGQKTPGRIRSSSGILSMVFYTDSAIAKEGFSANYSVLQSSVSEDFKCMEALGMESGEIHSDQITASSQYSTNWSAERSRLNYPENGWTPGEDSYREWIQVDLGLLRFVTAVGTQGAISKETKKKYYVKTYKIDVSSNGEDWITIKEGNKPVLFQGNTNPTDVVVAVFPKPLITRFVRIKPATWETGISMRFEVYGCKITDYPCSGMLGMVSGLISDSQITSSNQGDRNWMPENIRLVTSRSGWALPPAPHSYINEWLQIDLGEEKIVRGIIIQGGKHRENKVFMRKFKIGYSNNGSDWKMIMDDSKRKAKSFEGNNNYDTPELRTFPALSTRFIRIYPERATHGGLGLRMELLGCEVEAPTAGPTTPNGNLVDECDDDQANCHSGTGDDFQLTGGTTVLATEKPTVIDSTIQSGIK

B1: 1A03 anti-NRP1 IgG (antibody, V domains shown)
VH: EVQLLESGGGLVQPGGSLRLSCAASGFTFSSYYMSWVRQAPGKGLEWVSAISPGSSNKYYADSVQGRFTISRDNSKNTLYLQMNSLRAEDTAVYYCARRKKSFDYWGQGTLVTVSS
VL: QSVLTQPPSASGTPGQRVTISCSGPSSNIGNNDVSWYQQLPGTAPKLLIYSDNNRPSGVPDRFSGSKSGTSASLAISGLRSEDEADYYCGAWVASLSAYVFGGGTKLTVL
  Kd: 1110 nM

B2: IRCR-101 (3H10) anti-NRP1 IgG (antibody, V domains shown)
VH: EVQLLESGGGLVQPGGSLRLSCAASGFTFSSYYMSWVRQAPGKGLEWVSAISPGSSNKYYADSVKGRFTISRDNSKNTLYLQMNSLRAEDTAVYYCARRKYMFDYWGQGTLVTVSS
VL: QSVLTQPPSASGTPGQRVTISCTGSSSNIGNNDVYWYQQLPGTAPKLLIYSDSNRPSGVPDRFSGSKSGTSASLAISGLRSEDEADYYCASWDSSLSGYVFGGGTKLTVL
  Kd: 426 nM
